Results on 1 molecule are retold here after patent US20240317854A1 (Merck Sharp & Dohme, published 2024).

For the assay, the target named is T1, human immunoglobulin-like transcript 3 (ILT3) (human, UniProt Q8NHJ6 22-448).
T1 construct: whole, on cells; also called LILRB4; LIR5
Nature of the assay: receptor occupancy in blood samples of trial participants dosed in vivo (Q3W).

B1: Humanized anti-ILT3 mAb (52B8 VH1 M64V/VL5 N34Q) IgG4 S228P/Kappa (antibody, V domains shown)
VH: EVQLVESGGGLVQPGGSLRLSCAASGFTFSNYGMSWVRQAPGKGLEWVATISGGGDYTNYPDSVRGRFTISRDNAKNSLYLQMNSLRAEDTAVYYCGRRLWFRSLYYAMDYWGQGTLVTVSS
VL: DIQLTQSPSSLSASVGDRVTITCRASEKVDSFGQSFMHWYQQKPGKAPKLLIYLTSNLDSGVPSRFSGSGSGTDFTLTISSLQPEDFATYYCQQNNEDPYTFGQGTKLEIKR
notes: also called mAb number 46; mAb No. 46
B1: the binding result is given as “binds”.
